What was measured:
[1] = target: T1, TPP-2614 (TweakR-ECD-34-68-hIgGFc-His-D47A) (human); assay: ELISA, antibody coated at 1 µg/ml, TWEAKR variant at 250 ng/ml, anti-HIS HRP; normalized by WT; the legend of B does not name the variant, D47A by paragraph 82 and paragraph 368
T1 construct: also called D47A TWEAKR mutein
Procedure: (§1) Antibodies were coated (1 μg/ml), TWEAKR variant was added at 250 ng/ml, detection via anti-HIS HRP. […] Antibodies were coated (1 μg/ml), TWEAKR variant was added 250 ng/ml, detection via anti-HIS HRP.

[2] = target: T1, TPP-2614 …; assay: ELISA, IgG coated 1 ug/ml, TWEAKR variant 250 ng/ml, anti-HIS HRP (FIG. 6C)
Procedure: as §1

[3] = target: T2, TPP-2203 (TWEAKR-ECD-34-68-hIgGFc-His) (human); assay: ELISA, TPP-2203 coated at 1 µg/ml, biotinylated IgG at 0.08 µg/ml (open bar) and 0.3 µg/ml (filled bar), Streptavidin-HRP, Amplex Red
T2 construct: dimeric; also called TWEAKR(34-68)-Fc fusion protein; truncated ectodomain 34-68
Procedure: (§2) Detection was done with Streptavidin-HRP and Amplex-Red substrate.
(§3) To analyze for binding, 1 μg/ml of the respective dimeric TWEAKR-Fc construct were coated and, 0.3 μg/ml and 0.08 μg/ml of biotinylated IgG were used as soluble binding partner. Detection was done with Streptavidin-HRP and Amplex-Red substrate.

[4] = target: T3, TPP-1984 (hTNFRSF12Aaa28-68-CT-His) (human); assay: ELISA, TPP-1984 coated at 1 µg/ml, biotinylated IgG at 0.08 µg/ml (open bar) and 0.3 µg/ml (filled bar), Streptavidin-HRP, Amplex Red
T3 construct: monomeric ectodomain with HIS6 tag; also called TWEAKR(28-68)-HIS; C-terminally truncated TWEAKR ectodomain
T3 chain: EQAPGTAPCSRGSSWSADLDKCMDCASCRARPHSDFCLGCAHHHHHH
Procedure: as §2, §3

[5] = target: T4, TPP-1777 (DOG-TNFRSF12Aaa28-80-hIgG1-Fc) (dog); assay: SPR, TWEAKR-Fc immobilized, IgG injected, bivalent analyte model (avidity mode);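 further: kd derived as the ratio of fitted dissociation to association rate constants, with sensorgrams corrected against a reference flow cell and a buffer blank before fitting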
T4 construct: bivalent antigen; also called dog TWEAKR Fc
Procedure: Sensorgrams were generated after in-line reference cell correction followed by buffer sample subtraction. The dissociation equilibrium constant (KD) was calculated based on the ratio of association (kₒₙ₁) and dissociation rated (koff1) constants, obtained by fitting sensorgrams with a bivalent analyte model using Biavaluation Software (version 4.0).

- % binding normalized by wt binding signal [2]: < 5%
- binding result [3]: binds
- binding result [4]: binds
- Kd [5]: 6 nM
B1: TPP-2090 (antibody, human IgG1, kappa, V domains shown)
VH: EVQLLESGGGLVQPGGSLRLSCAASGFTFSPYPMIWVRQAPGKGLEWVSYISPSGGSTHYADSVKGRFTISRDNSKNTLYLQMNSLRAEDTAVYYCARGGDTYFDYFDYWGQGTLVTVSS
VL: DIQMTQSPSSLSASVGDRVTITCRASQSISGYLNWYQQKPGKAPKLLIYQASSLQSGVPSRFSGSGSGTDFTLTISSLQPEDFATYYCQQSYTSPFITFGQGTKVEIKR
notes: Human IgG1
- binding result [1]: no binding (tested: 250 ng/ml (TWEAKR variant))

Reference: patent US20160237160A1 (Bayer, published 2016)
